Measurements as given in patent US7091311.
*1 amine or outer side, *2 acyl side, *3 side chain or, on linkers, in order; H or OH if unused. Bridges are numbered along the chain shown (N, C = ends). Where no end group is shown, it is not given here. [ ]: non-standard residue; d: D form. NMeSer(Bzl) = N-methyl-O-benzyl-serine, CN([C@@H](COCc1ccccc1)C(=O)[*:2])[*:1]; Phe(4-NO2) = N[C@@H](Cc1ccc([N+](=O)[O-])cc1)C(=O)O; Phe(3,4-Cl2) = N[C@@H](Cc1ccc(Cl)c(Cl)c1)C(=O)O; DiPhAla = diphenylalanine (source's own name); Ser(Bzl) = O=C([C@H](COCc1ccccc1)N[*:1])[*:2]; Phe(4-Cl) = N[C@@H](Cc1ccc(Cl)cc1)C(=O)O; 1Nal = N[C@@H](Cc1cccc2ccccc12)C(=O)O; 2Nal = N[C@@H](Cc1ccc2ccccc2c1)C(=O)O; hPhe = N[C@@H](CCc1ccccc1)C(=O)O; 2Thi = N[C@@H](Cc1cccs1)C(=O)O; Cha = N[C@@H](CC1CCCCC1)C(=O)O; Phg = N[C@H](C(=O)O)c1ccccc1; Tle = CC(C)(C)[C@H](N)C(=O)O; NMeV = CN[C@H](C(=O)O)C(C)C; NMeA = CN[C@@H](C)C(=O)O; Nle = CCCC[C@H](N)C(=O)O; Nva = CCC[C@H](N)C(=O)O; Abu = CC[C@H](N)C(=O)O; Aib = CC(C)(N)C(=O)O; Sar = CNCC(=O)O

Target: soluble TPO-R (UniProt P40238)
Assay: competition ELISA vs MBP-TPO156

soluble TPO-R, sequence (P40238 26-491): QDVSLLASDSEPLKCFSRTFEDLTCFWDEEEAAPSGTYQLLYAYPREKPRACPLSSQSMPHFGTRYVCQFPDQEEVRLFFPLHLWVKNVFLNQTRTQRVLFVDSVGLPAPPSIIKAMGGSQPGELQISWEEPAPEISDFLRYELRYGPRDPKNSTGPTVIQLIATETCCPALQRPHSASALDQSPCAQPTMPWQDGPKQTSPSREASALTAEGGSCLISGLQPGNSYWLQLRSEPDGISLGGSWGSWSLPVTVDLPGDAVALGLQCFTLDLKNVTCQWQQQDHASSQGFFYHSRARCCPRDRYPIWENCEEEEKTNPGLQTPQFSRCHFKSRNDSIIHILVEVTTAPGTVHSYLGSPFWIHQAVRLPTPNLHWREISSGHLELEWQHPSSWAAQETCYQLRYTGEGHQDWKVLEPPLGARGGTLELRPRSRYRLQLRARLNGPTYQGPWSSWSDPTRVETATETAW

Binder | IC50 [nM]
TLREWISFC (also: further groups not given here) [[drawing CHEM-US-00042] (SEQ ID NO:192)(SEQ ID NO:192)] | 200000
CADGPTLREWIS[2Nal]C (disulfide 1-14 (inferred); not fully specified) [SEQ ID NO:12 cyclized, F - (2-Nal)] | < 500
CADGPTLREWI[NMeV]FC (disulfide 1-14 (inferred); not fully specified) [SEQ ID NO:12 cyclized, S - (N-Me-Val)] | 200000
CADGPTLREWI[Nva]FC (disulfide 1-14 (inferred); not fully specified) [SEQ ID NO:12 cyclized, S - Nva] | < 500
CADGPTLREWIS[Phe(4-Cl)]C (disulfide 1-14 (inferred); not fully specified) [SEQ ID NO:12 cyclized, F - (p-Cl-Phe)] | < 500
CADGPTLREWIS[Phg]C (disulfide 1-14 (inferred); not fully specified) [SEQ ID NO:12 cyclized, F - (Phenylgly)] | < 500
ADGPTLREWISFC (not fully specified; also: further groups not given here) [[drawing CHEM-US-00006] (SEQ ID NO:173)] | 200000
CADGPTLREWIS[hPhe]C (disulfide 1-14 (inferred); not fully specified) [SEQ ID NO:12 cyclized, F - Homo-Phe] | < 500
CADGPTLREWI[NMeA]FC (disulfide 1-14 (inferred); not fully specified) [SEQ ID NO:12 cyclized, S - (N-Me-Ala)] | < 200000
ADGPTLREWISFC (also: further groups not given here) [[drawing CHEM-US-00027] / [drawing CHEM-US-00028] (SEQ ID NO:173)] | < 500
PTLREWISFC (not fully specified; also: further groups not given here) [[drawing CHEM-US-00041] (SEQ ID NO:191)(SEQ ID NO:191)] | 200000
CADGPTLREWI[Aib]FC (disulfide 1-14 (inferred); not fully specified) [SEQ ID NO:12 cyclized, S - Aib] | < 500
TLREWISFC (also: further groups not given here) [[drawing CHEM-US-00043] (SEQ ID NO:192)(SEQ ID NO:192)] | 200000
GPTLREWISFC (not fully specified; also: further groups not given here) [[drawing CHEM-US-00039] (SEQ ID NO:190)(SEQ ID NO:190)] | < 200000
CADGPTLREWIS[Cha]C (disulfide 1-14 (inferred); not fully specified) [SEQ ID NO:12 cyclized, F - CHA] | < 500
ADGPTLREWISFC (also: further groups not given here) [[drawing CHEM-US-00036] (SEQ ID NO:173)(SEQ ID NO:173)] | < 500
GPTLREWISFC (not fully specified; also: further groups not given here) [[drawing CHEM-US-00038] (SEQ ID NO:190)(SEQ ID NO:190)] | < 500
CADGPTLREWIS[NMeA]C (disulfide 1-14 (inferred); not fully specified) [SEQ ID NO:12 cyclized, F - (N-Me-Ala)] | 200000
CADGPTLREWI[NMeSer(Bzl)]FC (disulfide 1-14 (inferred); not fully specified) [SEQ ID NO:12 cyclized, S - [N-Me-Ser(Bzl)]] | < 200000
ADGPTLREWISFC (also: further groups not given here) [[drawing CHEM-US-00035] (SEQ ID NO:173)(SEQ ID NO:173)] | < 500
CADGPTLREWIS[Phe(3,4-Cl2)]C (disulfide 1-14 (inferred); not fully specified) [SEQ ID NO:12 cyclized, F - (3,4-di-Cl-Phe)] | < 500
CADGPTLREWI[Nle]FC (disulfide 1-14 (inferred); not fully specified) [SEQ ID NO:12 cyclized, S - (Nor-Leu)] | < 500

The next lines start with the values.

IC50 [nM] | Binder
< 500 | CADGPTLREWIS[1Nal]C (disulfide 1-14 (inferred); not fully specified) [SEQ ID NO:12 cyclized, F - (1-Nal)]
< 500 | CADGPTLREWIS[2Thi]C (disulfide 1-14 (inferred); not fully specified) [SEQ ID NO:12 cyclized, F - Thi]
< 500 | ADGPTLREWISFC (not fully specified; also: further groups not given here) [[drawing CHEM-US-00013] (SEQ ID NO:173)]
< 500 | CADGPTLREWI[Sar]FC (disulfide 1-14 (inferred); not fully specified) [SEQ ID NO:12 cyclized, S - Sar]
< 500 | PTLREWISFC (not fully specified; also: further groups not given here) [[drawing CHEM-US-00040] (SEQ ID NO:191)(SEQ ID NO:191)]
< 500 | CADGPTLREWIS[Phe(4-NO2)]C (disulfide 1-14 (inferred); not fully specified) [SEQ ID NO:12 cyclized, F - (p-Nitrophe)]
< 500 | CADGPTLREWIS[Ser(Bzl)]C (disulfide 1-14 (inferred); not fully specified) [SEQ ID NO:12 cyclized, F - (Ser(Bzl))]
< 500 | CADGPTLREWIS[DiPhAla]C (disulfide 1-14 (inferred); not fully specified) [SEQ ID NO:12 cyclized, F - (DiPh - Ala)]
< 500 | CADGPTLREWIS[Pyridylala]C (not fully specified (bridges); also: cyclized, type not given here) [SEQ ID NO:12 cyclized, F - (Pyridylala)]
< 500 | CADGPTLREWI[Abu]FC (disulfide 1-14 (inferred); not fully specified) [SEQ ID NO:12 cyclized, S - Abu]
< 500 | CADGPTLREWI[Tle]FC (disulfide 1-14 (inferred); not fully specified) [SEQ ID NO:12 cyclized, S - (t-Bu-Gly)]
